According to publication PMC7917791:

Target: HAP1 phage capsid (T4 phage mutant with a nonsense mutation in the hoc gene, no functional Hoc protein on the capsid) (T4 phage (mutant HAP1))
Experiment: SEC; RFP-Hoc and new HAP1 virions produced together in infected E. coli; filtered lysate on Sepharose 4B (2.5 x 95 cm), 0.063 M phosphate buffer pH 7.2, 0.3 mL/min; phages eluted in the highest molecular weight fraction (A), non-incorporated RFP-Hoc in fraction B; fluorescence and titer of the fractions measured

Sequence of RFP-Hoc fusion (red fluorescent protein fused to the N-terminal end of the T4 phage Hoc protein) (P18056 whole entry, the tested form may be a part): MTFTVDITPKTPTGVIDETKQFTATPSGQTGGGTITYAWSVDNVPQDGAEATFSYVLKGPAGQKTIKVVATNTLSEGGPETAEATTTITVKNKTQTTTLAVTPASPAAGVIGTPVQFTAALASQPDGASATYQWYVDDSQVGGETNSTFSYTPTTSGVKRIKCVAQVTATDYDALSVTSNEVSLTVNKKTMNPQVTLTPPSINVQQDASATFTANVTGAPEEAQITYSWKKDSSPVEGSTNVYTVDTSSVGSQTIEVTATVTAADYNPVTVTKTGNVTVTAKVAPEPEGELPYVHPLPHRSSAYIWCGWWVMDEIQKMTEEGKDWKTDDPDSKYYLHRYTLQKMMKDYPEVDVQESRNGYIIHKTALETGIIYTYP

Substance: RFP-Hoc fusion (red fluorescent protein fused to the N-terminal end of the T4 phage Hoc protein) (from UniProt P18056 1-376) (natural protein)
- fluorescence of the phage fraction A after size exclusion chromatography: 5.12e+06 a.u.
